The values below come from article PMC5767185, “Arabidopsis G-Protein β Subunit AGB1 Interacts with BES1 to Regulate Brassinosteroid Signaling and Cell Elongation” (Frontiers in Plant Science, 2017).

The target in this test is T1, His-AGB1 (Arabidopsis, UniProt P49177 1-377).
T1 construct: AGB1 of Arabidopsis, full length, cloned into pCOLD-TF; as the empty pCOLD-TF vector gives His-TF, the fusion probably carries trigger factor between the His tag and AGB1 (surmised); also called His-tagged AGB1; source: E. coli (Rosetta), pCOLD-TF, purified; not shown: His, N-terminal, kept
T1 sequence (looked up): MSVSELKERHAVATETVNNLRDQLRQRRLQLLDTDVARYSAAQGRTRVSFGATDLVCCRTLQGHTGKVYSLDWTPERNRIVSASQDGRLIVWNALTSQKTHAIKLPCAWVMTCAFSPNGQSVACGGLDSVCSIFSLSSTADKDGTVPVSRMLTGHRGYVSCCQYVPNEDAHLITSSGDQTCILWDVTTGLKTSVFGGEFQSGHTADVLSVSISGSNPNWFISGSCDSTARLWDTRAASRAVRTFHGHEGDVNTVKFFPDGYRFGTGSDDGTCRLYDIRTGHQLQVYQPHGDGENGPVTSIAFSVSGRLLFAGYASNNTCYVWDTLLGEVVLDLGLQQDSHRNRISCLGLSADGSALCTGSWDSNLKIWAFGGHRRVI
In words: pull-down; GST-BES1 held on glutathione beads (MagneGST), His-AGB1 or His-TF added, lysis buffer without EDTA, 2 h at 4°C; prey detected with anti-His antibody. The settings on record: both partners purified.

B1: GST-BES1 (natural protein, Arabidopsis, UniProt Q9LN63 1-335, looked up)
chain: MTSDGATSTSAAAAAAAMATRRKPSWRERENNRRRERRRRAVAAKIYTGLRAQGNYNLPKHCDNNEVLKALCSEAGWVVEEDGTTYRKGHKPLPGDMAGSSSRATPYSSHNQSPLSSTFDSPILSYQVSPSSSSFPSPSRVGDPHNISTIFPFLRNGGIPSSLPPLRISNSAPVTPPVSSPTSRNPKPLPTWESFTKQSMSMAAKQSMTSLNYPFYAVSAPASPTHHRQFHAPATIPECDESDSSTVDSGHWISFQKFAQQQPFSASMVPTSPTFNLVKPAPQQLSPNTAAIQEIGQSSEFKFENSQVKPWEGERIHDVAMEDLELTLGNGKAHS
notes: BES1 of Arabidopsis, full length, cloned into pGEX-4T-1; also called GST-tagged BES1; source: E. coli (Rosetta), pGEX-4T-1, purified; not shown: GST, N-terminal, kept
On to B1, for which the binding result is given as “binds”.
